PMC10680189

Legend:
[1] = biological target: Toll-like receptor 4 (TLR-4) of Caco-2 cells (human (endogenous in Caco-2)) (UniProt O00206)
[2] = biological target: Toll-like receptor 4 (TLR-4) of Caco-2 cells (human (endogenous in Caco-2)) (UniProt O00206); remark: listed apart in the source

Chain of UniProt O00206 (O00206 24-839): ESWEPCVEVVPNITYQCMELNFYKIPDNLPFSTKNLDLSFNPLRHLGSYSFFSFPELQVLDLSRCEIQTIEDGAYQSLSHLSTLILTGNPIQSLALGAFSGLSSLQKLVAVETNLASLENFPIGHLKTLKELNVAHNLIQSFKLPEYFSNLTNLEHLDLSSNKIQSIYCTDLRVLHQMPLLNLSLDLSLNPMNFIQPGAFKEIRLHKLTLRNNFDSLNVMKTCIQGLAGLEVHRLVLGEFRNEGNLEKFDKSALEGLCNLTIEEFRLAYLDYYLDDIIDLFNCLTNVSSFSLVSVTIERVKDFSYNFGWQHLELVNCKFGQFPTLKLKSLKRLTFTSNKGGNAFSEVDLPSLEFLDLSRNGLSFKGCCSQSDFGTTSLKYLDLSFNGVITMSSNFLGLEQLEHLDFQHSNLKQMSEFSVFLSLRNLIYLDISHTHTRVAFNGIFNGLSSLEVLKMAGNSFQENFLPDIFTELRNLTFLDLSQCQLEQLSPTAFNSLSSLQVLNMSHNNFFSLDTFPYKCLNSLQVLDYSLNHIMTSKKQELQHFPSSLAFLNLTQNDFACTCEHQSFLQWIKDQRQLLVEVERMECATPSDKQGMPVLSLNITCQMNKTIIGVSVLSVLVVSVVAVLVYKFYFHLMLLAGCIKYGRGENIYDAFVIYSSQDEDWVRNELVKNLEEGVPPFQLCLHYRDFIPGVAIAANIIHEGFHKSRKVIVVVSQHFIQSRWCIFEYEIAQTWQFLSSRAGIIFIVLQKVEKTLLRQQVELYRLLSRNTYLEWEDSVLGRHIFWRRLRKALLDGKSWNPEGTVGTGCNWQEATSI

With “recombinant Trichinella spiralis galectin with GST tag (GST-rTsgal) (natural protein)” the TLR-4 protein expression level (Western blot) in Caco-2 cells incubated with rTsgal (50 µg/mL) for 48 h, increase against the PBS group [1] was 47.7%, the TLR-4 transcription level (qPCR) in Caco-2 cells incubated with rTsgal (50 µg/mL) for 48 h, increase against the PBS group [1] was 18.4% and the NF-κB p65 transcription level (qPCR) in Caco-2 cells treated with rTsgal for 48 h, increase against the PBS group [2] was 60.2%.
